Measurements as given in article PMC12865202 (2026).

Target: Chicken CapZ (full length α/β) (chicken, UniProt P13127 1-286; P14315 1-277)
Assay: ITC

B1: RavB^108-148 synthetic peptide (peptide)
chain: SKREETKLTHFVRERAQGPRGRRLPAHLQAKIKRVSLDKPH
For B1, the Kd was 170 nM.
